Assay [1] has as its target T1, Human uPAR DIII domain HisAvi Tag (human, biotinylated (site not stated)).
T1 chain: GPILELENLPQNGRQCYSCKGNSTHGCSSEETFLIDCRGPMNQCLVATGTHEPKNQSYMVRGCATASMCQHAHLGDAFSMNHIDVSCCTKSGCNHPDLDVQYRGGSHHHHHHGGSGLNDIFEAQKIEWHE
The assay can be described thus: BLI (Octet), biotinylated domain on SA sensor, antibody 200 nM. (In general: Biolayer interferometry detects binding as a change in optical thickness at a sensor tip.)

The target in assay [2] is Human uPAR DII-DIII domain HisAvi Tag (human, biotinylated (site not stated)). Described as above.
Assay [3] concerns the target T2, histidine-tagged human uPAR (Sino#10925-H08H) (human, UniProt Q03405 23-303).
T2 construct: also called uPAR-His
The assay can be described thus: BLI (Octet), uPAR on sensor, antibody in solution (avidity).

Assay [4] deals with T2, histidine-tagged human uPAR …. The assay can be described thus: BLI (Octet), antibody on anti-mouse Fc sensor, uPAR in solution.
Procedure: Binding affinity analysis was carried out using the Octet platform based on bio-layer interferometry (BLI) technology. Briefly, uPAR antibodies were immobilized via an Anti-mouse Fc (AMC) sensor. Each uPAR antibody was tested at a concentration of 10 μg/mL. […] A bare sensor was used as a control.
In assay [5] the target is T3, biotinylated human uPAR (human, UniProt Q03405 23-303, limits assumed, biotinylated (site not stated)). The assay can be described thus: BLI (Octet) on biotinylated human uPAR; row 'None': no first antibody.
For assay [6], the target named is T4, human uPAR expressed on HEK293 cells (human, UniProt Q03405 23-305).
T4 construct: whole, on cells; also called Hu-uPAR
The assay can be described thus: flow cytometry, HEK293 cells expressing human uPAR, 100 nM uPA present. Background: In flow cytometry, cells or beads pass a laser one at a time.
Source text: The antibodies were next tested for their ability to bind human and mouse uPAR expressed on the surface of cells. Human HEK293 cells engineered to express human uPAR or mouse uPAR were dye-labeled and mixed with unlabeled parental HEK293 cells.

Assay [7] deals with T3, biotinylated human uPAR. The assay can be described thus: BLI (Octet) competition on biotinylated human uPAR; competitor (first antibody): M1.
Procedure: (§1) An antibody competition assay was performed using the Octet platform. The antibody competition assay was performed by capturing biotinylated human uPAR on SA sensors. […] The second ligand binding solution contained the same concentration of the first preload ligand to prevent its disassociation during second ligand binding.
The target of assay [8] is T3, biotinylated human uPAR. The assay can be described thus: BLI (Octet) competition on biotinylated human uPAR; competitor (first antibody): M5.
Procedure: as §1
The target in assay [9] is T3, biotinylated human uPAR. The assay can be described thus: BLI (Octet) competition on biotinylated human uPAR; competitor (first antibody): ATN-368 (ATN-658).
Procedure: as §1

1 molecule from US20220340678A1 (MURAL ONCOLOGY, published 2022) can be followed below.

B1: M1 (antibody, V domains shown)
VH: EVQLQQSGAELVRPGASVKLSCTASGFNIKDEYINWVKQRPEQGLEWIGWIDPENGDTEYASKFQGKATITADTSSNTAYLQLSSLTSEDTAVYYCTGGNYVGWFPYWGQGTLVTVSA
VL: QIVLTQSPAIMSASPGEKVTMTCSASSSVSYMHWYQQKSGTSPKRWLYDTSKLASGVPARFSGSGSGTSYSLTISSMEAEDAATYYCQQWSSNPPYTFGGGTKLEIK
notes: Mouse hybridoma antibody; also called anti-uPAR antibody M1; parental M1
In general, koff refers to the rate constant with which the complex falls apart. What is called kon is the rate constant with which the complex forms. Low readings indicate slower complex formation, high ones faster complex formation. What is called EC50 is the midpoint of the concentration-response curve. Read a low EC50 as greater potency. For the molecule B1, the binding result in [1] and in assay [2] was “binds” in each case. For the same molecule, the Kd in [3] is less than 1 pM; in assay [4], 511 pM. For the same molecule, the figures for the koff in assay [3] and in assay [4] were less than 1e-07 s⁻¹ and 0.00034 s⁻¹, respectively. For the same molecule, the results for the kon in [3] and in assay [4] were 448000 M⁻¹ s⁻¹ and 664000 M⁻¹ s⁻¹, respectively. Moreover, the “response in competition assay” value is 0.305 with biotinylated human uPAR [5], -0.0441 in the assay with biotinylated human uPAR [7], 0.365 in the assay with biotinylated human uPAR [8] and -0.0232 with biotinylated human uPAR [9]. The same molecule showed an EC50 in assay [6] of 660 pM.
